Substitutions are numbered along the chain they refer to. Values belong to the binder of their own block, whether it stands above or below them.
Key:
[1] = target: T1, human TREM2 (triggering receptor expressed on myeloid cells 2) (human) (UniProt Q9NZC2); assay: 2nd screen, 2 nM Ab
T1 sequence (looked up): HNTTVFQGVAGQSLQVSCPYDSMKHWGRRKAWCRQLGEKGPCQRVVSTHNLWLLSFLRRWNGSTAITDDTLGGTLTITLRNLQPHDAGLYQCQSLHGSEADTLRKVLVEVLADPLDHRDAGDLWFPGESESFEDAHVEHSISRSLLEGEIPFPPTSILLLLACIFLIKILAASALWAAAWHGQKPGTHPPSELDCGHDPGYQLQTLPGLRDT

[2] = target: T1, human TREM2 (triggering receptor expressed on myeloid cells 2) (human); assay: 1st screen, 10 nM Ab
[3] = target: T1, human TREM2 (triggering receptor expressed on myeloid cells 2) (human); assay: 2nd screen, 10 nM Ab

B1: 6E7 antibody affinity modulation variant V76 (antibody, V domains shown)
VH: EVQLVQSGAEVKKPGESLKISCKGSGYSFGSYWIAWVRQMPGKGLEWMGIIYPGDSDTRYSPEFQGQVTISADKSISTAYLQWSSLKASDTAMYFCARQRTFYYDSSDYSDYWGQGTLVTVSS
VL: DIQMTQSPSSVSASVGDRVTITCRASQGISSWLAWYQQKPGKAPKLLIYAASSLQKGVPSRFSGSGSGRDFTLTISSLQPEDFATYFCQQADSFPRTFGQGTKLEIK
Binding Signal (fold over 6E7 parental antibody) [1]: 4.34 fold
Binding Signal (fold over 6E7 parental antibody) [2]: 4.57 fold
Binding Signal (fold over 6E7 parental antibody) [3]: 4.93 fold

B5: 6E7 antibody affinity modulation variant V85 (antibody, V domains shown)
VH: B1 VH with G30R, I50T, E63S, Q99S, S110F
VL: B1 VL with L54R, K56N, R69T
Binding Signal (fold over 6E7 parental antibody) [1]: 5.41 fold
Binding Signal (fold over 6E7 parental antibody) [2]: 5.41 fold
Binding Signal (fold over 6E7 parental antibody) [3]: 5.37 fold

B6: 6E7 antibody affinity modulation variant V87 (antibody, V domains shown)
VH: B1 VH with G30R, T58V, E63D, Q99S, S110F
VL: B1 VL with K56W, R69T
Binding Signal (fold over 6E7 parental antibody) [1]: 4.86 fold
Binding Signal (fold over 6E7 parental antibody) [2]: 3.84 fold
Binding Signal (fold over 6E7 parental antibody) [3]: 3.93 fold

B7: 6E7 antibody affinity modulation variant V84 (antibody, V domains shown)
VH: B1 VH with S28G, G30T, E63S
VL: B1 VL with A50G, K56N, R69T
Binding Signal (fold over 6E7 parental antibody) [1]: 1.45 fold
Binding Signal (fold over 6E7 parental antibody) [2]: 1.44 fold
Binding Signal (fold over 6E7 parental antibody) [3]: 1.62 fold

B8: 6E7 antibody affinity modulation variant V89 (antibody, V domains shown)
VH: B1 VH with G30T, E63S, S110F
VL: B1 VL with K56N, R69T, F94H
Binding Signal (fold over 6E7 parental antibody) [1]: 0.94 fold
Binding Signal (fold over 6E7 parental antibody) [2]: 1.33 fold
Binding Signal (fold over 6E7 parental antibody) [3]: 1.46 fold

B9: 6E7 antibody affinity modulation variant V86 (antibody, V domains shown)
VH: B1 VH with I34L, E63S, Q65E, Q99S, S110F
VL: B1 VL with L54R, K56N, R69T
Binding Signal (fold over 6E7 parental antibody) [1]: 5.17 fold
Binding Signal (fold over 6E7 parental antibody) [2]: 4.8 fold
Binding Signal (fold over 6E7 parental antibody) [3]: 5.02 fold

B11: 6E7 antibody affinity modulation variant V3 (antibody, V domains shown)
VH: B1 VH with G30A, E63S, G66D, Q99G, S110F
VL: B1 VL with L54R, K56N, R69T, S93R
Binding Signal (fold over 6E7 parental antibody) [1]: 1.95 fold
Binding Signal (fold over 6E7 parental antibody) [2]: 1.97 fold
Binding Signal (fold over 6E7 parental antibody) [3]: 2.24 fold

B12: 6E7 antibody affinity modulation variant V4 (antibody, V domains shown)
VH: B1 VH with Y60V, E63S, Q99S, S110F
VL: B1 VL with S53R, K56N, R69T, F94Y
Binding Signal (fold over 6E7 parental antibody) [1]: 5.88 fold
Binding Signal (fold over 6E7 parental antibody) [2]: 6 fold
Binding Signal (fold over 6E7 parental antibody) [3]: 5.51 fold

Results, then the binder that gave them:

Binding Signal (fold over 6E7 parental antibody) [1]: 0.83 fold
Binding Signal (fold over 6E7 parental antibody) [2]: 1.43 fold
Binding Signal (fold over 6E7 parental antibody) [3]: 1.38 fold
B2: 6E7 antibody affinity modulation variant V77 (antibody, V domains shown)
VH: B1 VH with G30T, E63S, S110F
VL: B1 VL with L54R, K56N, R69T

Binding Signal (fold over 6E7 parental antibody) [1]: 1.15 fold
Binding Signal (fold over 6E7 parental antibody) [2]: 1.31 fold
Binding Signal (fold over 6E7 parental antibody) [3]: 1.35 fold
B3: 6E7 antibody affinity modulation variant V13 (antibody, V domains shown)
VH: B1 VH with P62A, E63S, Q99G, S110F
VL: B1 VL with K56G, R69T, F94M

Binding Signal (fold over 6E7 parental antibody) [1]: 5.57 fold
Binding Signal (fold over 6E7 parental antibody) [2]: 4.92 fold
Binding Signal (fold over 6E7 parental antibody) [3]: 5.3 fold
B4: 6E7 antibody affinity modulation variant V88 (antibody, V domains shown)
VH: B1 VH with E63S, S110F
VL: B1 VL with S53R, K56R, R69T, F94S

Binding Signal (fold over 6E7 parental antibody) [1]: 1.25 fold
Binding Signal (fold over 6E7 parental antibody) [2]: 2.73 fold
Binding Signal (fold over 6E7 parental antibody) [3]: 2.84 fold
B10: 6E7 antibody affinity modulation variant V5 (antibody, V domains shown)
VH: B1 VH with G30T, I50T, E63S, S110F
VL: B1 VL with K56N, R69T, F94H

Reference: patent US20250019437A1
